Measurements: patent publication US7176008 (MERCK, dated 2007)

Legend:
[1] = target: T1, activated thrombin-activatable fibrinolysis inhibitor (human TAFIa) (human, UniProt Q96IY4 115-423)
T1 construct: Purified from human serum in the presence of 5 mM epsilon-aminocaproic acid; also called carboxypeptidase U
T1 sequence (looked up): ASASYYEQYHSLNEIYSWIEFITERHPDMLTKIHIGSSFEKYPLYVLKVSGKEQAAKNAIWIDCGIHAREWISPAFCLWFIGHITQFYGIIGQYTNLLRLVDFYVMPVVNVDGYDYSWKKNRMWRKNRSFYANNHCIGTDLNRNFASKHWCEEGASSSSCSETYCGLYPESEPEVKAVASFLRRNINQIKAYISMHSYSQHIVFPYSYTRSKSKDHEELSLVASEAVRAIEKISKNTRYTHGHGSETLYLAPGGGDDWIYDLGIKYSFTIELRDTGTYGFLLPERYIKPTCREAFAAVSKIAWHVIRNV

human carboxypeptidase B = target: T2, human carboxypeptidase B (human, UniProt P15086 111-417)
T2 construct: also called CPB
T2 sequence (looked up): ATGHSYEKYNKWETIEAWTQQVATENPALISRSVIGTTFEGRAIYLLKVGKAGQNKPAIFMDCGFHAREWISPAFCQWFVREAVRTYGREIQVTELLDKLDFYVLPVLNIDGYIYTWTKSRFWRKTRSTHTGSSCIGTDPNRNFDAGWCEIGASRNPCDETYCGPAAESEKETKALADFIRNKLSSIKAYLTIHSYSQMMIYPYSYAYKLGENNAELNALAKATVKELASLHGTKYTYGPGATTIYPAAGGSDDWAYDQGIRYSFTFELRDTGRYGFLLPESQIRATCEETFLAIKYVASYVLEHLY

B1: potato carboxypeptidase inhibitor (peptide, UniProt P01075 1-39, looked up)
chain: QQHADPICNKPCKTHDDCSGAWFCQACWNSARTCGPYVG
notes: also called PCI
binding result [1]: binds | binding result (human carboxypeptidase B): binds
